This is an account of results in patent EP0799891A1.

For experiment [1], the target named is human Fas antigen on human lymphocyte cell line HPB-ALL (human) (UniProt P25445). The experiment is described as follows: cell-based or functional assay.
In experiment [2] the target is fusion protein consisting of the extracellular region of the human Fas antigen and the extracellular region of the mouse interleukin 3 receptor (encoded by phFas-AIC2) (human; mouse) (UniProt P25445). The experiment is described as follows: ELISA; plate coated with COS-1 supernatant holding the human Fas ECD-mouse IL-3 receptor ECD fusion; detection with peroxidase-labelled rat anti-mouse IgM; PBS blank 0.104.

In the case of “CH11 L chain alone, COS-1 culture supernatant of cells transfected with pLEX004”, in experiment [1], the OD590 - OD620 (MTT assay, viable HPB-ALL cells) (OD590 - OD620) was determined as 0.887. The OD405 - OD492 (OD405 - OD492) in experiment [2] turned out to be 0.135.

In turn, “CH11 J chain alone, COS-1 culture supernatant of cells transfected with pJEX004” had an OD590 - OD620 (MTT assay, viable HPB-ALL cells) (OD590 - OD620) in experiment [1] of 0.883. In experiment [2], this substance yielded an OD405 - OD492 (OD405 - OD492) of 0.107.

In experiment [1], “recombinant CH11 H chain + L chain product in COS-1 culture supernatant [E] (pHEX126 and pLEX004), without J chain (antibody)” gave an ED50 of 0.0045 µg/mL; an OD590 - OD620 (MTT assay, viable HPB-ALL cells) (OD590 - OD620) of 0.176; an activity (cytotoxicity, ED50 test) relative to CH11 and supernatant [F] of 5 fold. The substance further returned an OD405 - OD492 (OD405 - OD492) in experiment [2] of 0.33.

“CH11 H chain alone, COS-1 culture supernatant of cells transfected with pHEX126” had an OD590 - OD620 (MTT assay, viable HPB-ALL cells) (OD590 - OD620) in experiment [1] of 0.876. In experiment [2], the OD405 - OD492 (OD405 - OD492) is 0.109.

Turning to “recombinant CH11 H chain + L chain + J chain product in COS-1 culture supernatant [F] (pHEX126, pLEX004 and pJEX004) (antibody)”, in experiment [1], the ED50 was 0.0229 µg/mL and the OD590 - OD620 (MTT assay, viable HPB-ALL cells) (OD590 - OD620) is 0.242. In addition, the OD405 - OD492 (OD405 - OD492) in experiment [2] was found to be 0.202.

For the substance “mouse anti-human Fas monoclonal antibody CH11 (IgM), purified from hybridoma culture supernatant”, the ED50 in experiment [1] was determined as 0.0212 µg/mL. In experiment [2], this substance displayed an OD405 - OD492 (OD405 - OD492) of 0.445.
